Reference: the supplement of paper PMC10065799, “High-throughput profiling of sequence recognition by tyrosine kinases and SH2 domains using bacterial peptide display” (eLife, 2023)

Tests used:
c-Src SH2 = assay: SH2 binding enrichment of the phosphorylated peptide, bacterial display (enrichment ratio); higher = better substrate or ligand; peptides without Tyr show the background
Grb2 SH2 = Grb2 SH2 (UniProt P62993); assay: as above
SHP2-C SH2 = assay: as above
Fyn = Fyn (UniProt P06241); assay: phosphorylation enrichment, bacterial display (enrichment ratio); higher = better substrate or ligand; peptides without Tyr show the background
EPHB2 = EPHB2 (UniProt P29323); assay: as above
EPHB1 = EPHB1 (UniProt P54762); assay: as above
c-Src = assay: as above
Fer (mouse) = assay: as above
Fes = Fes (UniProt P07332); assay: as above
MERTK = MERTK (UniProt Q12866); assay: as above
FGFR3 = FGFR3 (UniProt P22607); assay: as above
Hck = Hck (UniProt P08631); assay: as above
AncSZ = assay: as above
Jak2 = Jak2 (UniProt O60674); assay: as above
c-Abl (mouse) = assay: as above
FGFR1 = FGFR1 (UniProt P11362); assay: as above
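For SH2 binding enrichment of the phosphorylated peptide, bacterial display in this document: peptide library displayed on the E. coli surface as eCPX fusions, selected cells deep-sequenced, score is each peptide's frequency after selection divided by its frequency in the input.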
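For phosphorylation enrichment, bacterial display in this document: 11-residue human phosphosite peptides and single-mutation variants displayed on the E. coli surface, counted by deep sequencing, each peptide's frequency after selection divided by its frequency in the unselected input library; frequency after pTyr selection over input frequency; kinase dosed for 20-30% of maximal phosphorylation in three min.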

Sequence of MERTK (Q12866 whole entry, looked up): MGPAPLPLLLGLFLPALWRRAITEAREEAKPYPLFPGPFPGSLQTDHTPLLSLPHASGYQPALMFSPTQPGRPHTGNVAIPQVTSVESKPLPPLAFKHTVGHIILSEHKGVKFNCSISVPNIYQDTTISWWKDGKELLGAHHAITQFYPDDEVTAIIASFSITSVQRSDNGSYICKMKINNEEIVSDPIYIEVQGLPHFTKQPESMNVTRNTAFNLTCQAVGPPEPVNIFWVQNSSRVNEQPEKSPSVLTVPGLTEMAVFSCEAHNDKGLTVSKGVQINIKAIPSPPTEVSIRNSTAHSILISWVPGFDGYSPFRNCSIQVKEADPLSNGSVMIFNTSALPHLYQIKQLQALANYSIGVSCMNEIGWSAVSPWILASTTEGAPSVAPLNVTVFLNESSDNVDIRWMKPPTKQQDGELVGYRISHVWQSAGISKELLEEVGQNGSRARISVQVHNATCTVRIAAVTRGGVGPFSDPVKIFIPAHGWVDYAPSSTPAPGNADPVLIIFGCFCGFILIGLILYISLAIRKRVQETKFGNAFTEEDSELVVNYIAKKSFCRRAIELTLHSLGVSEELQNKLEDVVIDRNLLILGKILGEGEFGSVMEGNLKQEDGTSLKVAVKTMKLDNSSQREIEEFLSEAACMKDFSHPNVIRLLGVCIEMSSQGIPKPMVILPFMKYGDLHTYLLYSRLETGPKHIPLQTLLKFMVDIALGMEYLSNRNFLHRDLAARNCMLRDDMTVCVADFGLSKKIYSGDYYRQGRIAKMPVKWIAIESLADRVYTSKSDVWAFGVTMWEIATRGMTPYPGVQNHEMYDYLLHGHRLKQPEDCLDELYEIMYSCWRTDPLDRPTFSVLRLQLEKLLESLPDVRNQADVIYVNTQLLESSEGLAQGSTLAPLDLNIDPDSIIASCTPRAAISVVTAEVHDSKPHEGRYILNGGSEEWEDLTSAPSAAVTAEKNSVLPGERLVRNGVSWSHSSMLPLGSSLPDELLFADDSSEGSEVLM
Sequence of Hck (P08631 whole entry, looked up): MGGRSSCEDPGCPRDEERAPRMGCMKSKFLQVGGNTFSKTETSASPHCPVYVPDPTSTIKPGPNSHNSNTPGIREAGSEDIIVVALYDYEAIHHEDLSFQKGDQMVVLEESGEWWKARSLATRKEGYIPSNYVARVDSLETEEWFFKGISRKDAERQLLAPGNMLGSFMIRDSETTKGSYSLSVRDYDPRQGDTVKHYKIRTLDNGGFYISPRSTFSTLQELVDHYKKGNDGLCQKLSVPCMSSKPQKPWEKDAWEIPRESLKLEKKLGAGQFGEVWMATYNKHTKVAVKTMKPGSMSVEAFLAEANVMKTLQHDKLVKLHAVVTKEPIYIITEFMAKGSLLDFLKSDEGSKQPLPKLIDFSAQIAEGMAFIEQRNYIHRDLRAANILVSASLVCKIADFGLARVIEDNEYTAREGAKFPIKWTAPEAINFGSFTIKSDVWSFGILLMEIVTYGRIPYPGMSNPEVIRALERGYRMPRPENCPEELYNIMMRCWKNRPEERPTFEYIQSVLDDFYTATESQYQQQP
Sequence of Grb2 SH2 (P62993 whole entry, looked up): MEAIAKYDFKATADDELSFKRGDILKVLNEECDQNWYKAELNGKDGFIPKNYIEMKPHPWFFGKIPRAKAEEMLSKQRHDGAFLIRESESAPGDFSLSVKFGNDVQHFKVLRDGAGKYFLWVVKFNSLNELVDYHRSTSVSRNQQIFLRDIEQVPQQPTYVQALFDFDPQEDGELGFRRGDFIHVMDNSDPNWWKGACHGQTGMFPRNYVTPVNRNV
Sequence of FGFR3 (P22607 whole entry, looked up): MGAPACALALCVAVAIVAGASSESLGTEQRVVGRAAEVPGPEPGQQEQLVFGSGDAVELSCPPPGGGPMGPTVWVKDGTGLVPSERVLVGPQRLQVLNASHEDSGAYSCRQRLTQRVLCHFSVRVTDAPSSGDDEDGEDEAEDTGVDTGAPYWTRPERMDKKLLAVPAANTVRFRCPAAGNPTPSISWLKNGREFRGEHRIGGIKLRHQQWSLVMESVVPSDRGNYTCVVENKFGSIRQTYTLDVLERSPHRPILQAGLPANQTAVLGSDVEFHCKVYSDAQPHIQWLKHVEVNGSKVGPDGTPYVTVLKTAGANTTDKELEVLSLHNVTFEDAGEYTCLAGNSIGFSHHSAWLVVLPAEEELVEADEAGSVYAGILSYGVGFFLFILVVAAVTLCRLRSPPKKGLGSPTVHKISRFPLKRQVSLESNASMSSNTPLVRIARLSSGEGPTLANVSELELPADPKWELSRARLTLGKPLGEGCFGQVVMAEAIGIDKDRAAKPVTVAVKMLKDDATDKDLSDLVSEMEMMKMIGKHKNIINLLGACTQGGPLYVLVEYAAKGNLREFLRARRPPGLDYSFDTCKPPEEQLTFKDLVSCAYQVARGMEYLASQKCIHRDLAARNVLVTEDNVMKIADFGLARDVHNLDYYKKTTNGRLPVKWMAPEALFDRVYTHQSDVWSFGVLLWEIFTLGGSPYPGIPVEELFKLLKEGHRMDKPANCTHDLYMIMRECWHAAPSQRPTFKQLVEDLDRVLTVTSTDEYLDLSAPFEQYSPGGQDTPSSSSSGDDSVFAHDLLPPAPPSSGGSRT
Sequence of EPHB1 (P54762 whole entry, looked up): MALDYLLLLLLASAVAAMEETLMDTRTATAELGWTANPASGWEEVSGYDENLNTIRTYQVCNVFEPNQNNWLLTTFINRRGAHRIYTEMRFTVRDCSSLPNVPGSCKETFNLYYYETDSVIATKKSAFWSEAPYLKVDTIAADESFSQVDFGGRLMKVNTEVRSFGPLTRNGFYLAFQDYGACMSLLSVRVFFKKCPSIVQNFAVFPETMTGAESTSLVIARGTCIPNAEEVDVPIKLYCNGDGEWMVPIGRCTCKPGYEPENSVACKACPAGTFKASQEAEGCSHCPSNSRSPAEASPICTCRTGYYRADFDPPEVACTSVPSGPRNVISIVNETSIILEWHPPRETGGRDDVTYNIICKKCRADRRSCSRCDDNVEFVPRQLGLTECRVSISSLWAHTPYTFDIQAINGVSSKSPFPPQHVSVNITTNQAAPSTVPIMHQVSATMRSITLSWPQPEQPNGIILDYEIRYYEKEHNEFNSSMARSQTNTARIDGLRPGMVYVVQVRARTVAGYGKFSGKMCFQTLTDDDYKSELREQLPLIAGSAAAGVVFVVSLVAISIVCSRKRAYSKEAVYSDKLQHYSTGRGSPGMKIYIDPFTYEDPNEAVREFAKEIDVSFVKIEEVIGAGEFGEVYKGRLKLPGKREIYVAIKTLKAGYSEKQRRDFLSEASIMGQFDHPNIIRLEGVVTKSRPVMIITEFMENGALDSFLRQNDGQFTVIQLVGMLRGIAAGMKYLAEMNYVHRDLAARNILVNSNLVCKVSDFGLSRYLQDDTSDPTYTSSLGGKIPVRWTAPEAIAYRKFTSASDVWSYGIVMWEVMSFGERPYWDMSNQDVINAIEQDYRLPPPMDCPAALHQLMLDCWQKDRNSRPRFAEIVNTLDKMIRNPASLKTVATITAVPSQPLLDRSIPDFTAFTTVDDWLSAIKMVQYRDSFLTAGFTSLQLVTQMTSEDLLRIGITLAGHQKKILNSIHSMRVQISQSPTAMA
Sequence of FGFR1 (P11362 whole entry, looked up, the tested form may be a part): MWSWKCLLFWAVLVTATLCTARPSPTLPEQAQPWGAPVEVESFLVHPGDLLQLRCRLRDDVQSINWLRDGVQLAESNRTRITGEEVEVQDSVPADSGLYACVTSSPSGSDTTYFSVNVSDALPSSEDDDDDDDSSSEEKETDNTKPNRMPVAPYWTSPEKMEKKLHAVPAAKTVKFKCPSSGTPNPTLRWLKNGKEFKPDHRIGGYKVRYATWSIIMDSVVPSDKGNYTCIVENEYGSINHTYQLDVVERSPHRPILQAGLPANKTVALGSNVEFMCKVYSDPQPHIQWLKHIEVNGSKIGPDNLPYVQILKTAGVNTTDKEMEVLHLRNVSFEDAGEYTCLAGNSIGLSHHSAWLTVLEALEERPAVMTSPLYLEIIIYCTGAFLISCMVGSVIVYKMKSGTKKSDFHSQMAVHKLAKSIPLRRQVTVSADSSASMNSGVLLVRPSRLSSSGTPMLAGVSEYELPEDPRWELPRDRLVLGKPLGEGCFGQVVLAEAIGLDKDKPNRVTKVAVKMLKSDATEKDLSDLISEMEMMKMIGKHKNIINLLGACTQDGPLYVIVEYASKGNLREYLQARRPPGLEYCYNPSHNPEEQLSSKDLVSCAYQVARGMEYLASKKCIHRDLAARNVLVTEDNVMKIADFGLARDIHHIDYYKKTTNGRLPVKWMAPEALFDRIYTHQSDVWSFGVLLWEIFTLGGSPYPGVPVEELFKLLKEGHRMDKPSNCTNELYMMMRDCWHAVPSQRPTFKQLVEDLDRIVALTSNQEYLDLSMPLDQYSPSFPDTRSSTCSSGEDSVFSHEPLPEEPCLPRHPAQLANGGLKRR
Sequence of Fyn (P06241 whole entry, looked up): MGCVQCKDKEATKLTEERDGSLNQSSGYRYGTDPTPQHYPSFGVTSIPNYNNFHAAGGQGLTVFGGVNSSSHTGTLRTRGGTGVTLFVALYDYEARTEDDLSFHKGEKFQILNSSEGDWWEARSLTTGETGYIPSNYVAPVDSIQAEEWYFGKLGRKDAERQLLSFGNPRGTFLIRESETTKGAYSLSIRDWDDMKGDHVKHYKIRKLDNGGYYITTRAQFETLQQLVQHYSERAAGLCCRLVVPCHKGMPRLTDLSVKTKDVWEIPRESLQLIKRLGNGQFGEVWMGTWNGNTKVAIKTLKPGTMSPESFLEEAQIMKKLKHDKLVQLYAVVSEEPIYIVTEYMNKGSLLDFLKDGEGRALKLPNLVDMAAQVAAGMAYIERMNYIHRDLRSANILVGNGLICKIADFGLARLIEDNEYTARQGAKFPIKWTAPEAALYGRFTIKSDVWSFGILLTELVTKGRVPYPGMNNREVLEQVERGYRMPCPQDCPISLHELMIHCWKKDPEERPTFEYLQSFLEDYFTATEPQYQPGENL

Sequence	SH2 binding enrichment (c-Src SH2)	SH2 binding enrichment (Grb2 SH2)	SH2 binding enrichment (SHP2-C SH2)	phosphorylation enrichment (Fyn)	phosphorylation enrichment (EPHB2)	phosphorylation enrichment (EPHB1)	phosphorylation enrichment (c-Src)	phosphorylation enrichment (Fer (mouse))	phosphorylation enrichment (Fes)	phosphorylation enrichment (MERTK)	phosphorylation enrichment (FGFR3)	phosphorylation enrichment (Hck)	phosphorylation enrichment (AncSZ)	phosphorylation enrichment (Jak2)	phosphorylation enrichment (c-Abl (mouse))	phosphorylation enrichment (FGFR1)
HELFVYKCDEN [DOCK3_Y548_YF]	0.561	1.14	0.698	1.54	1.13	1.13	1.18	1.15	2.21	0.76	1.53	1.19	2.31	1.95	1.5	0.995
DDEESYENVPR [FCRL3_Y722_N721S]	0.672	0.935	0.77	0.516	0.548	0.466	0.462	0.427	0.969	0.47	0.666	0.481	1.12	1.06	0.687	0.475
CSEETYRLMLQ [RET_Y981_M980T]	0.467	0.643	0.553	0.586	0.611	0.65	0.627	0.703	1.29	0.451	1.06	0.576	1.28	1.03	0.81	0.741
YFVVEYRDQKP [MUC17_Y4332]	3.98	1.17	5.95	0.786	0.909	1.23	0.728	0.75	1.66	4.97	12.1	0.589	2.1	3.02	0.788	13.8
HESEIYGKVCF [CSRP3_Y57_C58G_YF]	0.456	0.998	0.672	6.51	0.911	0.885	4.61	6.89	1.71	1.24	0.939	3.95	1.58	1.19	1.34	0.813
QDLFLYQTHSE [PKHD1_Y255]	0.49	0.763	0.696	0.59	0.726	0.887	0.964	0.778	1.96	0.543	0.822	0.744	1.52	1.97	1.56	0.492
SLKAFYGEDAK [ALDH3A1_Y272_E270A]	0.68	0.891	0.663	0.416	0.369	0.395	0.489	0.417	0.724	0.332	0.538	0.456	0.603	0.58	0.562	0.433
RVKTPYSLKRW [BMPR2_Y979]	2.06	1.95	3.37	0.582	0.516	0.608	0.616	0.756	1.17	0.572	0.931	0.745	1.19	1.24	0.944	0.666
TFGQVYKGRHV [TNIK_Y40_YF]	0.752	0.893	1.24	0.39	0.367	0.401	0.437	0.33	0.545	0.34	0.368	0.406	0.524	0.598	0.555	0.347
AKLVQYYMEHH [PTPN11_Y80_E76K]	0.718	0.936	1.75	0.469	1.21	2.46	0.615	0.447	0.839	0.983	0.549	0.637	0.774	0.799	0.709	0.633
GIVKAYYVRAR [AIPL1_Y267]	0.464	0.858	0.502	0.394	0.47	0.398	0.415	0.407	0.771	0.465	0.548	0.396	1.03	0.706	0.558	0.461
AGREIYESDKC [TTN_Y4424]	1.03	1.06	1.4	0.538	0.607	0.524	0.536	0.519	0.996	0.447	0.819	0.523	0.949	0.731	0.616	0.608
ETDPRYFDEEF [AKT1_Y437_T435P]	0.507	0.946	0.501	0.565	0.604	0.625	0.563	0.6	1.31	0.483	0.787	0.611	1.36	1.29	0.886	0.548
SYPREYGSQEG [RBM10_Y48]	0.546	0.852	0.76	0.424	0.487	0.515	0.413	0.414	0.826	0.409	0.519	0.477	0.756	0.673	0.586	0.47
